According to patent US20150361164A1 (EVEC, published 2015):

T1: bovine thymus-derived HMGB1 (bovine, UniProt P10103 2-215)
T1 construct: Bought protein from tissue
T1 sequence (looked up): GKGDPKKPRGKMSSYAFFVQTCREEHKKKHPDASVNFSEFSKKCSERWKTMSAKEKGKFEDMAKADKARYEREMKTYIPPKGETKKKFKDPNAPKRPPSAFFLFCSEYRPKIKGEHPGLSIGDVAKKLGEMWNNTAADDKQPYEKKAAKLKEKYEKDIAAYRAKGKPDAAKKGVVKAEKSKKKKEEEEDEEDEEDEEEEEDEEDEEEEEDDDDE


The binders below were run against T1, bovine thymus-derived HMGB1 (assay: ELISA on HMGB1-immobilized immunoplate, antibodies adjusted to an equal concentration; OD as % of EV007156 (L) + #10-22 chimera (H) (source of the HMGB1 not named for this figure)).

Row | Binder | binding result
1 | #10-22 chimeric antibody (H chain) site substitution variant A94R (antibody, human IgG1, lambda, V domains shown, Variant H chain co-expressed with EV007156L in CHO-K1 cells) VH: AVQLVESGGGLVQPKESLKISCAASGFTFSNAAMYWVRQAPGKGLEWVARIRTKPNNYATYYADSVKGRFTISRDDSKSMVYLQMDNLKTEDTAMYYCTRPRRTEGIVSSGVDYWGQGVMVTVSS VL: YELTQPPSVSVSPGQTASITCSGDELPKRYAYWYQQKPGQSIVRVIYKDSERPSGIPERFSGSSSGTTATLTISGTQAEDEADYYCHSTYSDDKLPVFGGGTKLTVLG | binds
2 | V107T (antibody, human IgG1, lambda, co-expressed with EV007156L in CHO-K1 cells; also called #10-22 chimeric antibody (H chain) site substitution variant V107T; copies: 2 + 2) heavy: not shown light: YELTQPPSVSVSPGQTASITCSGDELPKRYAYWYQQKPGQSIVRVIYKDSERPSGIPERFSGSSSGTTATLTISGTQAEDEADYYCHSTYSDDKLPVFGGGTKLTVLGQPKAAPSVTLFPPSSEELQANKATLVCLISDFYPGAVTVAWKADSSPVKAGVETTTPSKQSNNKYAASSYLSLTPEQWKSHRSYSCQVTHEGSTVEKTVAPTECS | binds
3 | M89V (antibody, human IgG1, lambda, V domains shown, co-expressed with EV007156L in CHO-K1 cells; also called #10-22 chimeric antibody (H chain) site substitution variant M89V; copies: 2 + 2) VH: AVQLVESGGGLVQPKESLKISCAASGFTFSNAAMYWVRQAPGKGLEWVARIRTKPNNYATYYADSVKGRFTISRDDSKSMVYLQMDNLKTEDTAVYYCTAPRRTEGIVSSGVDYWGQGVMVTVSS VL: YELTQPPSVSVSPGQTASITCSGDELPKRYAYWYQQKPGQSIVRVIYKDSERPSGIPERFSGSSSGTTATLTISGTQAEDEADYYCHSTYSDDKLPVFGGGTKLTVLG | binds
4 | E16G (antibody, human IgG1, lambda, co-expressed with EV007156L in CHO-K1 cells; also called #10-22 chimeric antibody (H chain) site substitution variant E16G; copies: 2 + 2) heavy: not shown light: YELTQPPSVSVSPGQTASITCSGDELPKRYAYWYQQKPGQSIVRVIYKDSERPSGIPERFSGSSSGTTATLTISGTQAEDEADYYCHSTYSDDKLPVFGGGTKLTVLGQPKAAPSVTLFPPSSEELQANKATLVCLISDFYPGAVTVAWKADSSPVKAGVETTTPSKQSNNKYAASSYLSLTPEQWKSHRSYSCQVTHEGSTVEKTVAPTECS | binds
5 | V78A (antibody, human IgG1, lambda, V domains shown, co-expressed with EV007156L in CHO-K1 cells; also called #10-22 chimeric antibody (H chain) site substitution variant V78A; copies: 2 + 2) VH: AVQLVESGGGLVQPKESLKISCAASGFTFSNAAMYWVRQAPGKGLEWVARIRTKPNNYATYYADSVKGRFTISRDDSKSMAYLQMDNLKTEDTAMYYCTAPRRTEGIVSSGVDYWGQGVMVTVSS VL: YELTQPPSVSVSPGQTASITCSGDELPKRYAYWYQQKPGQSIVRVIYKDSERPSGIPERFSGSSSGTTATLTISGTQAEDEADYYCHSTYSDDKLPVFGGGTKLTVLG | binds
6 | M108L (antibody, human IgG1, lambda, co-expressed with EV007156L in CHO-K1 cells; also called #10-22 chimeric antibody (H chain) site substitution variant M108L; copies: 2 + 2) heavy: not shown light: YELTQPPSVSVSPGQTASITCSGDELPKRYAYWYQQKPGQSIVRVIYKDSERPSGIPERFSGSSSGTTATLTISGTQAEDEADYYCHSTYSDDKLPVFGGGTKLTVLGQPKAAPSVTLFPPSSEELQANKATLVCLISDFYPGAVTVAWKADSSPVKAGVETTTPSKQSNNKYAASSYLSLTPEQWKSHRSYSCQVTHEGSTVEKTVAPTECS | binds
7 | P41S (antibody, human IgG1, lambda, V domains shown, co-expressed with EV007156L in CHO-K1 cells; also called #10-22 chimeric antibody (H chain) site substitution variant P41S; copies: 2 + 2) VH: AVQLVESGGGLVQPKESLKISCAASGFTFSNAAMYWVRQASGKGLEWVARIRTKPNNYATYYADSVKGRFTISRDDSKSMVYLQMDNLKTEDTAMYYCTAPRRTEGIVSSGVDYWGQGVMVTVSS VL: YELTQPPSVSVSPGQTASITCSGDELPKRYAYWYQQKPGQSIVRVIYKDSERPSGIPERFSGSSSGTTATLTISGTQAEDEADYYCHSTYSDDKLPVFGGGTKLTVLG | binds
8 | M77T (antibody, human IgG1, lambda, V domains shown, co-expressed with EV007156L in CHO-K1 cells; also called #10-22 chimeric antibody (H chain) site substitution variant M77T; copies: 2 + 2) VH: AVQLVESGGGLVQPKESLKISCAASGFTFSNAAMYWVRQAPGKGLEWVARIRTKPNNYATYYADSVKGRFTISRDDSKSTVYLQMDNLKTEDTAMYYCTAPRRTEGIVSSGVDYWGQGVMVTVSS VL: YELTQPPSVSVSPGQTASITCSGDELPKRYAYWYQQKPGQSIVRVIYKDSERPSGIPERFSGSSSGTTATLTISGTQAEDEADYYCHSTYSDDKLPVFGGGTKLTVLG | binds
9 | N82bS (antibody, human IgG1, lambda, V domains shown, co-expressed with EV007156L in CHO-K1 cells; also called #10-22 chimeric antibody (H chain) site substitution variant N82bS; copies: 2 + 2) VH: AVQLVESGGGLVQPKESLKISCAASGFTFSNAAMYWVRQAPGKGLEWVARIRTKPNNYATYYADSVKGRFTISRDDSKSMVYLQMDSLKTEDTAMYYCTAPRRTEGIVSSGVDYWGQGVMVTVSS VL: YELTQPPSVSVSPGQTASITCSGDELPKRYAYWYQQKPGQSIVRVIYKDSERPSGIPERFSGSSSGTTATLTISGTQAEDEADYYCHSTYSDDKLPVFGGGTKLTVLG | binds
10 | K15G (antibody, human IgG1, lambda, co-expressed with EV007156L in CHO-K1 cells; also called #10-22 chimeric antibody (H chain) site substitution variant K15G; copies: 2 + 2) heavy: not shown light: YELTQPPSVSVSPGQTASITCSGDELPKRYAYWYQQKPGQSIVRVIYKDSERPSGIPERFSGSSSGTTATLTISGTQAEDEADYYCHSTYSDDKLPVFGGGTKLTVLGQPKAAPSVTLFPPSSEELQANKATLVCLISDFYPGAVTVAWKADSSPVKAGVETTTPSKQSNNKYAASSYLSLTPEQWKSHRSYSCQVTHEGSTVEKTVAPTECS | binds
11 | D82aN (antibody, human IgG1, lambda, V domains shown, co-expressed with EV007156L in CHO-K1 cells; also called #10-22 chimeric antibody (H chain) site substitution variant D82aN; copies: 2 + 2) VH: AVQLVESGGGLVQPKESLKISCAASGFTFSNAAMYWVRQAPGKGLEWVARIRTKPNNYATYYADSVKGRFTISRDDSKSMVYLQMNNLKTEDTAMYYCTAPRRTEGIVSSGVDYWGQGVMVTVSS VL: YELTQPPSVSVSPGQTASITCSGDELPKRYAYWYQQKPGQSIVRVIYKDSERPSGIPERFSGSSSGTTATLTISGTQAEDEADYYCHSTYSDDKLPVFGGGTKLTVLG | binds
12 | S76N (antibody, human IgG1, lambda, V domains shown, co-expressed with EV007156L in CHO-K1 cells; also called #10-22 chimeric antibody (H chain) site substitution variant S76N; copies: 2 + 2) VH: AVQLVESGGGLVQPKESLKISCAASGFTFSNAAMYWVRQAPGKGLEWVARIRTKPNNYATYYADSVKGRFTISRDDSKNMVYLQMDNLKTEDTAMYYCTAPRRTEGIVSSGVDYWGQGVMVTVSS VL: YELTQPPSVSVSPGQTASITCSGDELPKRYAYWYQQKPGQSIVRVIYKDSERPSGIPERFSGSSSGTTATLTISGTQAEDEADYYCHSTYSDDKLPVFGGGTKLTVLG | binds
13 | A1E (antibody, human IgG1, lambda, co-expressed with EV007156L in CHO-K1 cells; also called #10-22 chimeric antibody (H chain) site substitution variant A1E; copies: 2 + 2) heavy: not shown light: YELTQPPSVSVSPGQTASITCSGDELPKRYAYWYQQKPGQSIVRVIYKDSERPSGIPERFSGSSSGTTATLTISGTQAEDEADYYCHSTYSDDKLPVFGGGTKLTVLGQPKAAPSVTLFPPSSEELQANKATLVCLISDFYPGAVTVAWKADSSPVKAGVETTTPSKQSNNKYAASSYLSLTPEQWKSHRSYSCQVTHEGSTVEKTVAPTECS | binds
14 | I20L (antibody, human IgG1, lambda, co-expressed with EV007156L in CHO-K1 cells; also called #10-22 chimeric antibody (H chain) site substitution variant I20L; copies: 2 + 2) heavy: not shown light: YELTQPPSVSVSPGQTASITCSGDELPKRYAYWYQQKPGQSIVRVIYKDSERPSGIPERFSGSSSGTTATLTISGTQAEDEADYYCHSTYSDDKLPVFGGGTKLTVLGQPKAAPSVTLFPPSSEELQANKATLVCLISDFYPGAVTVAWKADSSPVKAGVETTTPSKQSNNKYAASSYLSLTPEQWKSHRSYSCQVTHEGSTVEKTVAPTECS | binds

Each binder was assayed against T1, bovine thymus-derived HMGB1 (assay: ELISA on HMGB1-immobilized immunoplate, antibodies adjusted to an equal concentration; OD as % of #10-22 chimera (source of the HMGB1 not named for this figure)).

Row | Binder | binding result
15 | D41G (antibody, human IgG1, lambda, V domains shown, co-expressed with the #10-22 chimeric antibody H chain in CHO-K1 cells; also called #10-22 chimeric antibody (L chain) site substitution variant D41G) VH: AVQLVESGGGLVQPKESLKISCAASGFTFSNAAMYWVRQAPGKGLEWVARIRTKPNNYATYYADSVKGRFTISRDDSKSMVYLQMDNLKTEDTAMYYCTAPRRTEGIVSSGVDYWGQGVMVTVSS VL: YELIQPPSASVTLGNTVSITCSGDELPKRYAYWYQQKPGKSIVRVIYKDSERPSGISDRFSGSSSGTTATLTIRDTQAEDEADYYCHSTYSDDKLPVFGGGTKLTVLG | binds
16 | D60E (antibody, human IgG1, lambda, V domains shown, co-expressed with the #10-22 chimeric antibody H chain in CHO-K1 cells; also called #10-22 chimeric antibody (L chain) site substitution variant D60E) VH: AVQLVESGGGLVQPKESLKISCAASGFTFSNAAMYWVRQAPGKGLEWVARIRTKPNNYATYYADSVKGRFTISRDDSKSMVYLQMDNLKTEDTAMYYCTAPRRTEGIVSSGVDYWGQGVMVTVSS VL: YELIQPPSASVTLGNTVSITCSGDELPKRYAYWYQQKPDKSIVRVIYKDSERPSGISERFSGSSSGTTATLTIRDTQAEDEADYYCHSTYSDDKLPVFGGGTKLTVLG | binds
